For one substance, Kd results are on record in PMC12847411.

Targets include REGN10987; MW05; AZD8895-275; AZD8895-25; Sotrovimab; AZD8895; AZD8895-450; REGN10933.
Assay in all cases: BLI
For orientation: In BLI a coated tip is dipped into the sample, and binding shifts an interference pattern.

Chain of AZD8895-450 (heavy, as listed by the source, chain 1 of 2): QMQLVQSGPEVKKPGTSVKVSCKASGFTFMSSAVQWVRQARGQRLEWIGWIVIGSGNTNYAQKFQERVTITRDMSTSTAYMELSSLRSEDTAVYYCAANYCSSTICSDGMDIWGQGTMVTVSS
Chain of AZD8895-450 (light, as listed by the source, chain 2 of 2): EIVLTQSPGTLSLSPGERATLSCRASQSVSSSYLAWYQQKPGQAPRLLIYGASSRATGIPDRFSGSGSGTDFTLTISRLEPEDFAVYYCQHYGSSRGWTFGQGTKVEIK
Chain of AZD8895-25 (heavy, as listed by the source, chain 1 of 2): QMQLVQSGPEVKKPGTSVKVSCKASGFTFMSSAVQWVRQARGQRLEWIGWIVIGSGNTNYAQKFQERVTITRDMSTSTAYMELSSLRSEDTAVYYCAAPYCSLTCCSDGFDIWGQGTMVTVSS
Chain of REGN10987 (heavy, as listed by the source, chain 1 of 2): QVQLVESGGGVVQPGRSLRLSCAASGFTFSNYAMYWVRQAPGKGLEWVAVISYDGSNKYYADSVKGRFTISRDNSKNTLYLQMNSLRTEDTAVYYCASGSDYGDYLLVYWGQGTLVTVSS
Chain of REGN10987 (light, as listed by the source, chain 2 of 2): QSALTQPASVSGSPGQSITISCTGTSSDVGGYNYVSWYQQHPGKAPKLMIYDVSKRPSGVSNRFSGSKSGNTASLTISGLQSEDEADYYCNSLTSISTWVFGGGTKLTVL
Chain of AZD8895-275 (heavy, as listed by the source, chain 1 of 2): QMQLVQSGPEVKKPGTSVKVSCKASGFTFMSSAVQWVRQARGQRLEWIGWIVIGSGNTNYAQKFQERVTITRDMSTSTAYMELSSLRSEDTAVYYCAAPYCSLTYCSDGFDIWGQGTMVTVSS
Chain of REGN10933 (heavy, as listed by the source, chain 1 of 2): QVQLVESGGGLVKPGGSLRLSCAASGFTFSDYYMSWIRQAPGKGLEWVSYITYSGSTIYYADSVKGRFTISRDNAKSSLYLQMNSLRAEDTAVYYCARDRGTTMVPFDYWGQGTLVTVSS
Chain of REGN10933 (light, as listed by the source, chain 2 of 2): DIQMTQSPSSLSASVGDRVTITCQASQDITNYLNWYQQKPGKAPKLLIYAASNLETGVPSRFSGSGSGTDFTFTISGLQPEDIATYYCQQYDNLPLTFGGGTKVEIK
Chain of MW05 (light, as listed by the source): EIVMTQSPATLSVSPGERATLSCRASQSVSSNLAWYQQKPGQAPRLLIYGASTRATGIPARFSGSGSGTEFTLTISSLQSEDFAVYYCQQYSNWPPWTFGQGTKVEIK
Chain of AZD8895 (heavy, as listed by the source, chain 1 of 2): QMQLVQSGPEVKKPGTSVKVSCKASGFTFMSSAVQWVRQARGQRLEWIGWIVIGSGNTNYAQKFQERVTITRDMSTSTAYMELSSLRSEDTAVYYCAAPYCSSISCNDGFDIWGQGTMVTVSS

“SARS-CoV-2 spike RBD protein (Sino Biological, 40592-V08H) (from UniProt P0DTC2) (domain or fragment)”: the Kd (as a rule, the equilibrium constant for the complex coming apart) in the assay with REGN10987 was 5.92 nM; with MW05, 1.89 nM; with AZD8895-275, 5.17 nM; in the assay with AZD8895-25, 4.81 nM; with Sotrovimab, 1.42 nM; with AZD8895, 6.71 nM. For the same substance, the Kd with AZD8895-450 stood at 7.33 nM; with REGN10933, 6.7 nM.
